Results from patent CN116535505A.
Blank lines part the entries; values can stand above or below the molecule they belong to.

Experiments:
[1] = biological target: 红细胞胞膜抗原 (Erythrocyte membrane antigen) on human fresh red blood cells (human); experiment: ELISA on formaldehyde-fixed human red blood cells; antibody at 0 ng/ml (blank)
[2] = biological target: 红细胞胞膜抗原 (Erythrocyte membrane antigen) on human fresh red blood cells (human); experiment: ELISA on formaldehyde-fixed human red blood cells; antibody at 3.125 ng/ml
[3] = biological target: 红细胞胞膜抗原 (Erythrocyte membrane antigen) on human fresh red blood cells (human); experiment: ELISA on formaldehyde-fixed human red blood cells; antibody at 25 ng/ml
[4] = biological target: 红细胞胞膜抗原 (Erythrocyte membrane antigen) on human fresh red blood cells (human); experiment: ELISA on formaldehyde-fixed human red blood cells; antibody at 12.5 ng/ml
[5] = biological target: 红细胞胞膜抗原 (Erythrocyte membrane antigen) on human fresh red blood cells (human); experiment: ELISA on formaldehyde-fixed human red blood cells; antibody at 6.25 ng/ml
[6] = biological target: 红细胞胞膜抗原 (Erythrocyte membrane antigen) on human fresh red blood cells (human); experiment: ELISA on formaldehyde-fixed human red blood cells; antibody at 50 ng/ml
[7] = biological target: 红细胞胞膜抗原 (Erythrocyte membrane antigen) on human fresh red blood cells (human); experiment: ELISA on red blood cells; Anti-EM-8F9mut1 stored 21 days at -80 C; antibody at 12.5 ng/ml
[8] = biological target: 红细胞胞膜抗原 (Erythrocyte membrane antigen) on human fresh red blood cells (human); experiment: ELISA on red blood cells; Anti-EM-8F9mut1 stored 21 days at 37 C; antibody at 0 ng/ml (blank)
[9] = biological target: 红细胞胞膜抗原 (Erythrocyte membrane antigen) on human fresh red blood cells (human); experiment: ELISA on red blood cells; Anti-EM-8F9mut1 stored 21 days at -80 C; antibody at 1.5625 ng/ml
[10] = biological target: 红细胞胞膜抗原 (Erythrocyte membrane antigen) on human fresh red blood cells (human); experiment: ELISA on red blood cells; Anti-EM-8F9mut1 stored 21 days at 4 C; antibody at 1.5625 ng/ml
[11] = biological target: 红细胞胞膜抗原 (Erythrocyte membrane antigen) on human fresh red blood cells (human); experiment: ELISA on red blood cells; Anti-EM-8F9mut1 stored 21 days at 4 C; antibody at 12.5 ng/ml
[12] = biological target: 红细胞胞膜抗原 (Erythrocyte membrane antigen) on human fresh red blood cells (human); experiment: ELISA on red blood cells; Anti-EM-8F9mut1 stored 21 days at 37 C; antibody at 1.5625 ng/ml
[13] = biological target: 红细胞胞膜抗原 (Erythrocyte membrane antigen) on human fresh red blood cells (human); experiment: ELISA on red blood cells; Anti-EM-8F9mut1 stored 21 days at 37 C; antibody at 12.5 ng/ml
[14] = biological target: 红细胞胞膜抗原 (Erythrocyte membrane antigen) on human fresh red blood cells (human); experiment: ELISA on red blood cells; Anti-EM-8F9mut1 stored 21 days at 4 C; antibody at 0 ng/ml (blank)
[15] = biological target: 红细胞胞膜抗原 (Erythrocyte membrane antigen) on human fresh red blood cells (human); experiment: ELISA on red blood cells; Anti-EM-8F9mut1 stored 21 days at -80 C; antibody at 0 ng/ml (blank)

OD450 (ref 630 nm) [1]: 0.041 OD | OD450 (ref 630 nm) [2]: 0.196 OD | OD450 (ref 630 nm) [3]: 1.3 OD | OD450 (ref 630 nm) [4]: 0.696 OD | OD450 (ref 630 nm) [5]: 0.408 OD | OD450 (ref 630 nm) [6]: 1.89 OD
Molecule: 对照抗体 (antibody)

OD450 (ref 630 nm) [7]: 2.15 OD | OD450 (ref 630 nm) [1]: 0.063 OD | OD450 (ref 630 nm) [8]: 0.057 OD | OD450 (ref 630 nm) [9]: 0.647 OD | OD450 (ref 630 nm) [10]: 0.691 OD | OD450 (ref 630 nm) [2]: 1.28 OD | OD450 (ref 630 nm) [11]: 2.12 OD | OD450 (ref 630 nm) [3]: 2.42 OD | OD450 (ref 630 nm) [12]: 0.666 OD | OD450 (ref 630 nm) [4]: 2.33 OD | OD450 (ref 630 nm) [5]: 2 OD | OD450 (ref 630 nm) [6]: 2.36 OD | OD450 (ref 630 nm) [13]: 2.13 OD | OD450 (ref 630 nm) [14]: 0.047 OD | OD450 (ref 630 nm) [15]: 0.051 OD
B1: Anti-EM-8F9mut1单克隆抗体 (antibody, mouse IgG2a, kappa, V domains shown)
VH: QVPLQQPGAALVKPGASVKLSCQASDYTFTNYNMHWVKQTPGQGLEWIGTIYAGDGDPSYNQKFKGQATLTADKSSSTAYMQLLSLTSEDSAVYYCARGGTRAMDYWGHGTSVTVSS
VL: DVLLTQIPLSLPVSLGDQASLSCRSSQTLVHSDGNTYLAWYLQKPGQSPKLLIYKVSRRFSGVPDRFSGSGSGTDFTLKISRVEAEDLGVYYCFQGSHVPFTFGSGTKLEVKR
